The values that follow come from the DeepSol protein solubility set.

This data set in a line: soluble on expression in E. coli; label from the status in PepcDB or PDB records.
For the sequence “GPGSMLILLFFSPEMLRRTLSRCFSADAIGPVHPDVMWGYMDARYAGPGWVSWIKQLPVETLTMQGGTSMTNMNDRTGVIADPEDPRHPIALIQWGPMNHYDGAFMQLSYGDYGPISQGSRLMQVLYDNYLEPFSMNRVCAQLYFYQKVPNNYHESVEASAEYIGQTASLIGQVLVGMGSVIMEGVTVKGDTNCVYIAEGVQVLENTCIVSDAPTDLLAYQRHEAINPYQQWDGMDGVCRIMQNTIIEPNCFLDSCSIGPFNRIGHNTKIMKGVTTGTMVHILPGSVVTKDTKIGDGELWGGAPAVKIGKVSKFEWKRPYFASLLHRESVVESYRNMSRYGDQVVHFQDKMGKLDTLMLQYEKDVPASVKAKIKEFVQGREPFHHMLTRITQGWSPANRPDDKNYNLCPPLPGVKLFAEHNNDSSDSDLHGTYMDITNIFNDFRW”, the “soluble on expression in E. coli” value was “not soluble”.

As for “MEAKQRIIPAIKTMKQFDAFLSSGYTVGVLLEVHIAQLKSIFAYARRHGKELIVHVDLVQGLSHDEHAAEYLCQEFRPHGLISTKAGVIMKARQKRVLAVQRIFLLDSHALEKSYQLIAKTNPDCIEVIPGAMPHIIREVKERTGKPIYAGGLIRTVDDVERALAAGAAAVTTSNETLWRHYNG”, the “soluble on expression in E. coli” value was “not soluble”.

As for “MGSDKIHHHHHHMKNTEIRKNIFPVGFYDDIHPDFSVNFQMNRCYTMTNDDVMLKEMREISPSIHNYEEFIEKFLELYNKALNEGHKLRAAYYLRTAEFYMTADHPQKQNYRKQFISLMQEYFNISDEQPYKVPYENGFLPAYRFTSEAPKGTIVMFGGFDSYVEEMFKMALFLKEAGYDVVFFDGPGQGSALEDYKIPMTHEWEKPVKSILDYFELDDVTLLGISLGGYLTVRAAAFEKRVHRVIADDILSNFYEVVLNTLPSQLKEKVNSLMSDGNEQEVNILFKDLMKKSLMVEWAINQGMHITGSKTPYEFLNKILLYNTSKISEKLEQDVLLMAAQEDHYIPLNQFFDQSKSLINVRSLTTRMFTRKETAQNHCQSGNLGLAFEVIANWIEQIQK”, the “soluble on expression in E. coli” value is on record as “not soluble”.

“MFRNVAELVELAESQAIPISEVMIRQEIEVTERSREAIIEQMENHLDVMEKAVRRGITEQVRSVSGLTGGDAVLLQDYLKKGNYLSSETVLDAVSKAVATNEVNAAMGTICATPTAGASGVVPGVLFGMEKRLSPTKEQKVRFLFTSGAFGFVVANNASISGAAGGCQAEVGSATGMAAAALVELAGGTPSQSAEAMAIALKNMLGLVCDPVAGLVEVPCVKRNAIGASIAITAADMALAGIQSRIPTDEVIDAMYKIGQAMPVAYKETAQGGLAATPKGRELEAKIFGVALDKK”: the “soluble on expression in E. coli” value is given as “not soluble”.

With “MSSAYQLVIFDWEGTIADTLGVILHTVATEAKMLGFGDIDPYQARKYVDLGLVQAVKKTLPNLTAGQQEDLLQAVQSAMISRPTEVRLIPGVLEFIQQLHQAKVDLAIATNKGHNSLIRALQATELDQLFKVTRSAGQVPAKPCPQMLEEIMEEFGRDPSSTLMIGDSTTDMEMAKRINVNAIGMDFYHQQEDALKAAGALAVFDDYKLLSAYLMLPEA”, the “soluble on expression in E. coli” value is “not soluble”.

With “MGSDKIHHHHHHMGEVYEKNNIDFDSIAKMLLIKYKDFILSKFKKAAPVENIRFQNLVHTNQFAQGVLGQSQHLCTVYDNPSWHSIVLETLDLDLIYKNVDKEFAKDGHAEGENIYTDYLVKELLRYFKQDFFKWCNKPDCNHCGQNTSENMTPLGSQGPNGEESKFNCGTVEIYKCNRCGNITRFPRYNDPIKLLETRKGRCGEWCNLFTLILKSFGLDVRYVWNREDHVWCEYFSNFLNRWVHVDSCEQSFDQPYIYSINWNKKMSYCIAFGKDGVVDVSKRYILQNELPRDQIKEEDLKFLCQFITKRLRYSLNDDEIYQLACRDEQEQIELIRGKTQETKSESVSAASKSSNRGRESGSADWKAQRGEDGK”, the “soluble on expression in E. coli” value is on record as “not soluble”.

Turning to “GPGSMAFHPRDAFILHQEQIQRYNEGDEVDTSAEQKVQIELQRLTDSESTVTIAFSHEDHTLGNPLRHVLMQNREVTSAGYAIPHPLEAKMLLHVQSTDYAVEAVAEGLERLASICDETLQSFEDCMHRMRCEGAKQE”, the “soluble on expression in E. coli” value is “not soluble”.

Take “MGSDKIHHHHHHMKIAIITDGSVEMGMGHVYRTLSLANELRKFNVNEIIFFTKSDEDVIKKIEENGFKVIKCSDNNDILKNIKNIKPDVVIIDDLGIEEDFAKNIRELCKKLIFFDNPNPSSNKYADIVVNAIVGSELKNRKYFDEENKTLYFYGPKYLILRNEFYKVKKEMLSRSKNKETKNILIAFGGSDPSNLTCKVLEELLSKDRDFNINVVLGPKFQYEDELNNLLKRYSKSDKIKIYKNIDNMAELMKDNDLIITSPGMTMFEALFLGIPVVVLYQNELQRECYDDYLKKISKTHLNPLKEGYFIDAEHTDLHIGKGKFEIIEAITNIYNCKKIGEDSKIIIRQITDNDLELLMAWRSNPLIYKFFYIQKEPLKWEEHYSWWMSRENRVDWIILLRENNTIRKVGSVNVSQLNTDNPEIGILIGEFFLWGKHIGRHSVSLVLKWLKNIGYKKAHARILENNIRSIKLFESLGFKKTKKGRENEWIYEVNL”: the “soluble on expression in E. coli” value is recorded as “not soluble”.

On to “MSNLRIAYDRLRSMSRTEENPTVQAMQIALHIPKNDPPARSEILQAAAQAVVACCLSEESVTDEWYGNRLQQWYDHRIRKVARRGRNAAWERVTTLPGVSSVSGSAEARAFVPGPVDSVDPLLKKLQISHTDVPFDSPADPTEGPVLYVDRGLGMSVGKTAAQVGHGSMLLAAAQPFEWVERWADQGYRLSVREVDSEVFRKAAEQPGAVHVIDAGFTEVAPSSLTVVALPMLLF”, for which the “soluble on expression in E. coli” value was “not soluble”.

With “MKQFKIRSVLQSIALLVLAGTAAAEPKPEKITHGRFEQIPVLRPDGEPQRVVIWFSDAGHVDQRTRQAEILRQDGAMVALVDTTHLYKVLAADSNHCTFSVGDVENLSRYLQAYYRDKTYRLPLLVGDGDGSGLVYAVAAQATENILAGVVSDGLCPVVVPTQAVCGAGVASDQHLKPAPVAAPLLVMTVSSAHCPAQLTSGFVRKVALGREIRLAASADLLPRLRAALRVLGAQKGVSLPPPPADLDGLPVVEVPSKAQKKSDTFAIFVSGDGGWAEIDKKVAGHLADADIPVVGLDSLRYFWSERTPEGFAKDLDRIARFYAHHWKRNRLLLVGFSQGADVLPAAINKLSPNTRQIIRMTALLSLGKYAHYEFHVSNWISTDDEGIPIAPDMVKLRSTRTVCIYGVDDQETLCPSLPQQNRRVALPGTHHFNGDYETVAKTILAQMEAAPLEHHHHHH”, the “soluble on expression in E. coli” value is “not soluble”.

With “MSLRLGVTGLSRAGKTVFISSLVHNLLNGGRLPLFEAMRSGRVSNVRLEPQPDDAIPRFQYEDHIQALVRDRLWPDSTRAISELRITLDYQSASGWGRWFSAGKLSIDIVDYPGEWLLDLPLLSQDYKQFSDATVALAGSGIRAELAQEWLAIASSLDINAPADEMTARRLAESFAAYLKACKSDERSLSTLPPGRFLMPGDLEGSPALTFAPLPGVTDAKAPKGSLRAMMERRYDAYKSIVVKPFFREHFARLDRQIVLIDTLQAVNRGPEAVQDLERALGDVLACFRPGTNSILSSLIRRRIDKVLIAATKADHLHHESHDRLERLTRRLVDRAITTIGMNGAGIEVMALASVRATREASVRQDGHELPVIVGTPMAGETINGEIFDGNRKTAIFPGDLPEDPEPLFRSIDQDGDKATLPDVNVVRFRPPNIDEPGSGGIRLSVPHIRLDRAMQFLFGDKLAEGHHHHHH”, the “soluble on expression in E. coli” value is “soluble”.

For the sequence “MRHTLPIAPQFYVTAPQSCPYLEGRLERKLFTALQGEHAQKLNDTLSKQGFRRSQNVLYRPSCAECSACLSARIRVADFEPTRTQRRVMKRNADLRRNATSPWATEDQYALFRRYLDDRHADGGMADMDIFEFAAMIEETPIRSRVIEYSRPGDTPSNRPLSAVCLTDIFDDGLSMVYSFYDPDLAGRSLGAYVILDHIEIAREAGLPYVYLGYWVPGSRKMGYKATYSALEIYKGGRWQAIGQPSDHRAELHPLSVDPIAEQVARISLPEARSGDRSRDLEHHHHHH”, the “soluble on expression in E. coli” value is recorded as “not soluble”.

As for “MSLPINDQRFNGEDWINNPFFNLLSQHYLLANEHMNSLLENMEYGDENLAKRVRFFTRQYLDALSPANFIHTNPQLMAETLQSHGKNLLRGLHNLLSDVEAGSSRLIIKMTDTEAFKIGENLATTPGKVIFRNSMMELIQYCPRTTKAKSIPLLIVPPWINKYYILDLSPHNSLIRWLVEQGITVFIISWVNPDEEGHHHHHH”, the “soluble on expression in E. coli” value is recorded as “not soluble”.

As to “TRAFKWTTNFNISFNKNKVLALSENQTALLTAAQFDQNYNGQSSYIAKVGLPMGLMYGYVYEGTYKYDDFNKSGNSYSLKPGVPHYSTETNTQPGMPKYADLNGDGVVDSNDRTIIGRGLPIHTGGFTNNFEYKGIDLSIFFQWSYGNDIMNANRLFFESSNNRSRELNQFASYANRWTPENPTSDIPAATNSSSNRVISSRIIEDGSYLRLKNVTVGYTFPAKLVKKWKIDKARVYVAAQNLWTCTGYSGYDPEVSVRNSALTPGLDYSSYPRAYSISFGVSLGF”, the “soluble on expression in E. coli” value was “not soluble”.

“MHHFSTGSSSAIIASSSSSSSSSNGYGHSPRDLLTGAAVANGGGGGFGGVAGVAFATTSPPTPVNLDVQRIDCTDETTVVMVKLTDEMFAALQESQRSGKPLRINVNDKEGRVEIGDGTASSKTNNTFYFQKQTVPEQTDTLVHSGGGVRNVGTYKTKYQIQATDRSFQETKKRAELRAEVEKSRGTKQMKKSGVTSSSSRYHNSSNSTPRSMNSAPNSSRVSPSFMSSSSSKASTSHVTTNNSKGTPNNGSESKKIDMTPQLMKHSIKKRIIHLIVTQKYSNWEEVYKKLKSDGLPEEKDEIEKIRSCVEEVSETRPEMSVMSLRTSFLSEVDQRWMFFNQEEKSHVRRLCNSGSRVGPTDNNFAPLRKKGMERITASSKTEKDKVKEKLEEAAKIPSPPKDQKSLPSIVEEDDYYTAPPEPANKRRAHNLAPPPPPPVQVVTPQTTSSQTETGPLPPKRTKRPESSSPQLERSSQPASKLNPIKLAATIAMQPIPKCDPPPPPPSRDTYHHNVASVAVNGGGSTASSRVSSPASSLSSPSQPSCNWEKQFGDIKTLSEAEAYFKQFHKEYPLYMECHEMLTKVSSEFRGLEVKLLTAVALSKTSPSPQNMQNVKQIEKNIQNRYAHFEKDPEFMKARQRHTDLRSKLNVLKTRIGSWEKMRRQSSTNV”: the “soluble on expression in E. coli” value is listed as “soluble”.

As for “GPGSMSRSKEPPLPEELRTRLGQMDGCATAESWESVGNECFSHGCHLSAIRCYTKALEKGSDTANLRSSRSAAYMKSSMFAGPSLALKDAERAAELEPGRCEAHLRVGDAQLARKKYAEAKAAYQKAIELDGSCTAATHALRIVERELFLRSLDEQKKFSPVTEKPSGENTGTTSTGSNAEGPLNMEEEIKKRIQLWAEDTTVREDRTAMRAFNARLDEADRQAGTKYKSELLLKFRGKMAAQEPFRRMVEERRDQEMRMGEGIDYRNADSYRAILTKGTDGVGLGISTDAYKSYKYESKMW”, the “soluble on expression in E. coli” value was “not soluble”.

As to “MLHTTQLYQHVPETRWPIVYSPRYNITFMGLEKLHPFDAGKWGKVINFLKEEKLLSDSMLVEAREASEEDLLVVHTRRYLNELKWSFAVATITEIPPVIFLPNFLVQRKVLRPLRTQTGGTIMAGKLAVERGWAINVGGGFHHCSSDRGGGFCAYADITLAIKFLFERVEGISRATIIDLDAHQGNGHERDFMDDKRVYIMDVYNRHIYPGDRFAKQAIRRKVELEWGTEDDEYLDKVERNIKKSLQEHLPDVVVYNAGTDILEGDRLGGLSISPAGIVKRDELVFRMVRGRRVPILMVTSGGYQKRTARIIADSILNLFGLGLIGPESPSVSAQNSDTPLLPPAVP”, the “soluble on expression in E. coli” value was “soluble”.

As for “MGSDKIHHHHHHMEKLEKTVDMNIQQMINLSVLELVKLGLKYGIFKAVSKKISYIDLLNQVDVPNKPLLKKLIDHLKLLGIIEETPTHLLLNSFSYEIRFPKEEHMYLLPDWIPSFEEIYRMVDFALITPNHPHVLMDFDKDADFWDLRLSSTFHEAYRILIAKLGEIGEGSRVLDIGCGSASPAYFGKLVGEEGEYVGVDYSPALLEIAKNRTEGLPVKLKEMDASLIKPKNKYDVAIMSFVLEYIENRRSALRNALDSLESGGKLIIVDAFKDEFRNVEALEFFEGLNSAFREYPSKKYIKEVILDEGFEVKFGDYGKAILLIEKL”, the “soluble on expression in E. coli” value was “not soluble”.
